In patent US20250263468A1 (CELLTRION, published 2025):

B1: antibody No. 48 (fully human antibody, full IgG) (antibody, V domains shown)
VH: EVQLVQSGGGLIQPGGSLRLSCAASGFTVSSNYMSWVRQPPGKGLEWVSVIYPGGSTFFADSVQGRFTISRDNSKNTLYLQMNSLRAEDTAVYYCARSYDFLTDYTDAFDIWGQGTMVTVSS
VL: ELELTQPPSVSGAPGQRVTISCTGSSSNIGAGYDVHWYQQLPGTAPKLLIYGNSNRPSGVPDRFSGSKSGTSASLAITGLQAEDEADYYCQSYDSSLSGLWVFGGGTKLTVQ
B2: antibody No. 53 (fully human antibody, full IgG) (antibody, V domains shown)
VH: EVQLVQSGGGLIQPGGSLRLSCAASGFTVSSNYMSWVRQPPGKGLEWVSVIYPGGSTFFADSVQGRFTISRDNSKNTLYLQMNSLRAEDTAVYYCARSYDFLTDYTDAFDIWGQGTMVTVSS
VL: not shown
B3: antibody No. 59 (fully human antibody, full IgG) (antibody, V domains shown)
VH: QVQLQESGPGLVKPSETLSLTCTVSGDSISGSSYYWGWIRQPPGKGLEWIGNIFYSGSTYYNPSLKSRVTISVDTPKNQFSLKLSSVTAADTAMYYCARGSRGYYDILTGYSTGGFDYWGQGTLVTVSS
VL: ELQMTQSPATLSVSPGEGATLSCRASQSVSSNLAWYQHKPGQAPRLLIYDASTRATGIPARFSGSGSGTEFTLTISSLQSEDFAVYYCQQYNNWPLTFGGGTKLEIK
B4: antibody No. 81 (fully human antibody, full IgG) (antibody, V domains shown)
VH: QVQLVQSGGGVVQPGRSLRLSCAASGFTFSSFAMHWVRQAPGKGLEWVAVISFDGSNKYYADSVKGQFTISRDNSKNTLYLQMNSLRAEDTAVYYCARGDYYGSGSYYNPSPFFDYWGQGTLVTVSS
VL: not shown
B5: antibody No. 32 (fully human antibody, full IgG) (antibody, V domains shown)
VH: EVQLVQSGGGLIQPGGSLRLSCAASEFIVSSNYMTWVRQAPGKGLEWVSIIYPGGSTYYADSVKGRFTISRDNSKNTLYLRMNSLRAEDTAVYYCARDLPLTGTTLDYWGQGTLVTVSS
VL: not shown
B6: antibody No. 37 (fully human antibody, full IgG) (antibody, V domains shown)
VH: EVQLVQSGAEVKKPGESLKISCRGSGYSFTSHWIAWVRQMPGKGLEWMGIIYPGDSDSRYSPSFQGQVTISADKSISTAYLQWSSLKASDTAIYYCARGPNLYNWFDSWGQGTLVTVSS
VL: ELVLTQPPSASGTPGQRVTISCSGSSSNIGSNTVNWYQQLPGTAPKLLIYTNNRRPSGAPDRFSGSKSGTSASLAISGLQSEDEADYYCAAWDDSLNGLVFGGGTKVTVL
B7: antibody No. 54 (fully human antibody, full IgG) (antibody, V domains shown)
VH: EVQLLESGGGLVQPGRSLRLSCAASGFNFDDYAMHWVRQAPGKGLEWVSGISWNSGTIGYADSVKGRFIISRDNAKNSLYLQMRSLKPEDTALYYCAKEELGPYSNRWYSSSDGMDVWGQGTTVTVSS
VL: ELVLTQPPSVSGAPGQRVTISCTGSSSNIGAGYDVHWYQQLPGTAPKLLIYGNSNRPSGVPDRFSGSKSGTSASLAITGLQAEDEADYYCQSYDSSLSGVVFGGGTKLTVL
B8: antibody No. 45 (fully human antibody, full IgG) (antibody, V domains shown)
VH: EVQLVQSGAEVKKPGSSVKVSCKASGGTFSSYDISWVRQAPGQGLEWMGGIIPILGIPNYAQKFQGRVTITADESTSTAYMELSSLRSEDTAVYYCARSRGYSGYGANWYFDLWGRGTLVTVSS
VL: ELVVTQPPSVSGAPGQRVTISCTGSSSNIGAGYDVHWYQQLPGTAPKLLIYGNSNRPSGVPDRFSGSKSGTSASLAITGLQAEDEAEYYCQSYDSSLSGPVFGGGTKLTVL
B9: antibody No. 34 (fully human antibody, full IgG) (antibody, V domains shown)
VH: QVQLVQSGAEVKKPGSSVKVSCKTSGGTFSNYPLTWVRQAPGQGLEWLGGIIPIIGATNYAQKFQGRVTITADESTSTAFMELSSLRSEDTAVYYCARGRGYSGYGAAYYFDYWGQGTLVTVSS
VL: ELELTQPPSVSGAPGQRVTISCTGSSSNIGAGYDVHWYQQLPGTAPKLLIYGNSNRPSGVPDRFSGSKSGTSASLAITGLQAEDEADYYCQSYDSSLSGWVFGGGTKVTVL
B10: antibody No. 61 (fully human antibody, full IgG) (antibody, V domains shown)
VH: EVQLLESGGALVQPGRSLRLSCAASGFTFDDYAMHWVRQGPGKGLEWVSGTTWNSGTIGYADSVKGRFIISRDNAENSLYLQMNSLRPEDTALYYCAKDIGSGDRPDAFHLWGQGTMVTVSS
VL: ELVLTQPPSVSVAPGKTARITCGGNNIGSKSVHWYQQKPGQAPVLVVYDDSDRPSGIPERFSGSNSGNTATLTISRVEAGDEADYYCQVWDSSSDRVVFGGGTKVTVL
B11: antibody No. 33 (fully human antibody, full IgG) (antibody, V domains shown)
VH: EVQLVESGGGVVQPGRSLRLSCAASGLTFSDYGMHWVRQAPGKGLEWVAAISYDGSNKYYADSVKGRFTISRDNSKNTVYLQMNSLRAEDTAVYYCVRDSGLYGSGWSTYQYYAMDVWGQGTTVTVSS
VL: ELVLTQSPSVSVAPGKTARITCGGNNIGSKSVHWYQQKPGQAPVLVVYDDSDRPSGIPERFSGSNSGNTATLTISRVEAGDEADYYCQVWDSSSDHVVFGGGTKVTVL

Tests used:
[1] = molecular target: T1, SARS-CoV-2 virus surface protein (RBD), wild type (SARS-CoV-2, UniProt P0DTC2 319-536); test: BLI (Octet), full IgG against SARS-CoV-2 RBD
Description: The binding affinity (equilibrium dissociation constant, KD) of each fully human antibody to SARS-CoV-2 RBD was evaluated by biolayer interference (BLI) assay using Octet.

[2] = molecular target: T1, SARS-CoV-2 virus surface protein (RBD), …; test: BLI (Octet), full IgG against RBD WT
[3] = molecular target: SARS-CoV-2 spike D614 (pseudovirus) (SARS-CoV-2, UniProt P0DTC2 14-1273); test: cell-based or functional assay

Binder	Kd [1]	other results
B1	0.184 nM	
B2	3.39 nM	
B3	0.0496 nM	
B4	0.0428 nM	
B5	0.147 nM	Kd [2]: 0.305 nM; koff [2]: 0.000193 s⁻¹; kon [2]: 633000 M⁻¹ s⁻¹; IC50, pseudovirus neutralization [3]: 4.34 ng/mL
B6	0.057 nM	
B7	0.0313 nM	Kd [2]: 0.133 nM; koff [2]: 0.000108 s⁻¹; kon [2]: 815000 M⁻¹ s⁻¹
B8	0.0708 nM	
B9	0.185 nM	
B10	0.0226 nM	
B11	0.0431 nM	
